Assay results reported in paper doi:10.1101/581934.

Biological target: MeCP2-MBD WT (Homo sapiens, UniProt P51608 80-164)
Test: ITC

MeCP2-MBD WT, sequence (P51608 80-164): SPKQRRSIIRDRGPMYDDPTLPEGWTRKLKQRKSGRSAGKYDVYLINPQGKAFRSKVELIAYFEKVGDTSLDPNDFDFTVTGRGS

Binder	Kd
Mutated MARs DNA 16mer (dsDNA) DNA 1: GCCCTGGTGTAGTGGC DNA 2: GCCACTACACCAGGGC	3.8 ± 0.7 µM
MARs DNA 16mer (dsDNA) DNA 1: GTGCAGGTGTCCTTAA DNA 2: TTAAGGACACCTGCAC	2.8 ± 0.2 µM
